Two substances from patent US20110104145A1, “METHOD FOR THE TREATMENT OR PROPHYLAXIS OF CHRONIC INFLAMMATORY DISEASES” (priority 2008, published 2011) can be followed below.

The target of the experiment is CD89 (Fc receptor for IgA) on polymorphonuclear cells (human) (UniProt P24071). In words: cell-based or functional assay.
Chain of CD89 (Fc receptor for IgA) on polymorphonuclear cells (human) (P24071 22-287): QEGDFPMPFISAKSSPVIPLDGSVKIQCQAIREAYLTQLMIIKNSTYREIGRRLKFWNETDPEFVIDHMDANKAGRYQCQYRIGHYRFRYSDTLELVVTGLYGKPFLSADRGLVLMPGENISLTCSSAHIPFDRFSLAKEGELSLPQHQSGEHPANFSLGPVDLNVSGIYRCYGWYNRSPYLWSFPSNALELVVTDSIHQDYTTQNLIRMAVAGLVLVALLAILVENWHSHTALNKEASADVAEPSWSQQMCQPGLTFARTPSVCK

The substance anti-CD89 monoclonal antibody MIP8a displayed a percentage blocking (polymorphonuclear cells bound to IgA-coated beads, 2-D migration assay) of 75 to 90%. The result for anti-CD89 monoclonal antibody MY43 reads 30%.
